Reference: US20180177842A1 (CANIMGUIDE THERAPEUTICS, published 2018)
Ends that are not written are not given here.

T1: His-tagged P3028 (human, also: His tag, length and end not given here)
T1 construct: in solution at 0.5 ug/mL, detected with mouse anti-His antibody and rabbit anti-mouse peroxidase (rampo); also called PGE73; His-tag-P3028; not shown: His tag
T1 peptide: VFDEFKPLVEEPQNLIK

T2: P3028 (VFDEFKPLVEEPQNLIK, SEQ ID NO: 185), His-tagged (human)
T2 construct: Synthetic fragment of human serum albumin (positions 397-413); used in solution as His-tagged peptide PGE73; also called PGE73; not shown: His-tag
T2 peptide: VFDEFKPLVEEPQNLIK


Biological target: T1, His-tagged P3028
Assay: PEPSCAN ELISA, peptide on chip;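 also: binding detected by peroxidase ELISA with ABTS, OD405 colour imaged by CCD camera before and after staining, raw OD405 reported as rampo units, air-bubble wells scored 0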
Procedure: (§1) After washing, the peroxidase substrate 2,2′-azine-di-3-ethylbenzthiazoline sulfonate (ABTS) and 2 μL of 3% H2O2 were added. The binding capacity of the mAb was measured as a color development at 405 nm (optical density, OD405). The color development was quantified with a charge-coupled device (CCD)—camera and an image processing system.
(§2) The OD405-values obtained by a CCD-camera was considered as raw data values (“rampo values,” “rampo units,” or “rampo scores”). […] First the CCD-camera made a picture of the card before peroxidase coloring and then again a picture after the peroxidase coloring. […] These values were copied into an excel file and labeled as a raw data file. […] Sometimes a well can contain an air-bubble resulting in a false-positive value. If manual inspection of the cards detect an air-bubble the value are set to 0 for well.

| RAMPO Score [rampo units] | Binder |
| --- | --- |
| 466 | AKLDTFFVKLSLFTER [SEQ ID NO 268] |
| 442 | VKLDTFFVKLSLFTER [SEQ ID NO 281] |
| 528 | KKEDTFFVKLSLFTER [SEQ ID NO 285] |
| 367 | GKLDTFFVKLSLFTER [SEQ ID NO 271] |
| 494 | KKLATFFVKLSLFTER [SEQ ID NO 298] |
| 432 | KKCDTFFVKLSLFTER [SEQ ID NO 283] |
| 477 | KKHDTFFVKLSLFTER [SEQ ID NO 288] |
| 457 | MKLDTFFVKLSLFTER [SEQ ID NO 275] |
| 483 | IKLDTFFVKLSLFTER [SEQ ID NO 273] |
| 492 | KKDDTFFVKLSLFTER [SEQ ID NO 284] |
| 451 | KKTDTFFVKLSLFTER [SEQ ID NO 296] |
| 373 | DKLDTFFVKLSLFTER [SEQ ID NO 269] |
| 455 | QKLDTFFVKLSLFTER [SEQ ID NO 278] |
| 449 | LKLDTFFVKLSLFTER [SEQ ID NO 274] |
| 393 | KKSDTFFVKLSLFTER [SEQ ID NO 295] |
| 473 | KKQDTFFVKLSLFTER [SEQ ID NO 293] |

| RAMPO Score [rampo units] | Binder |
| --- | --- |
| 523 | RKLDTFFVKLSLFTER [SEQ ID NO 279] |
| 386 | KKKDTFFVKLSLFTER [SEQ ID NO 290] |
| 460 | KKMDTFFVKLSLFTER [SEQ ID NO 291] |
| 445 | NKLDTFFVKLSLFTER [SEQ ID NO 276] |
| 563 | KKGDTFFVKLSLFTER [SEQ ID NO 287] |
| 427 | KKADTFFVKLSLFTER [SEQ ID NO 282] |
| 377 | KKVDTFFVKLSLFTER [SEQ ID NO 297] |
| 454 | KKIDTFFVKLSLFTER [SEQ ID NO 289] |
| 428 | HKLDTFFVKLSLFTER [SEQ ID NO 272] |
| 370 | KKRDTFFVKLSLFTER [SEQ ID NO 294] |
| 393 | KKFDTFFVKLSLFTER [SEQ ID NO 286] |
| 396 | EKLDTFFVKLSLFTER [SEQ ID NO 270] |
| 493 | TKLDTFFVKLSLFTER [SEQ ID NO 280] |
| 387 | PKLDTFFVKLSLFTER [SEQ ID NO 277] |
| 374 | KKNDTFFVKLSLFTER [SEQ ID NO 292] |

Biological target: T2, P3028 (VFDEFKPLVEEPQNLIK, SEQ ID NO: …)
Assay: PEPSCAN ELISA; peptide on chip, His-P3028 added;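 also: peroxidase color development with ABTS and H2O2 substrate, OD405 imaged by CCD camera with image processing and taken as raw values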
Procedure: as §1, §2

| RAMPO Score [rampo units] | Binder |
| --- | --- |
| 317 | KKLRTFFVKLSLFTER [KKLRTFFVKLSLFTER (SEQ ID NO: 480)] |
| 344 | KKLSTFFVKLSLFTER [KKLSTFFVKLSLFTER (SEQ ID NO: 451)] |
| 422 | KKLYTFFVKLSLFTER [KKLYTFFVKLSLFTER (SEQ ID NO: 303)] |
| 493 | TKLDTFFVKLSLFTER [TKLDTFFVKLSLFTER (SEQ ID NO: 280)] |
| 281 | KSLDTFFVKLSLFTER (also called 30684) [KSLDTFFVKLSLFTER (SEQ ID NO: 510)] |
| 393 | KKSDTFFVKLSLFTER [KKSDTFFVKLSLFTER (SEQ ID NO: 295)] |
| 443 | KKLWTFFVKLSLFTER [KKLWTFFVKLSLFTER (SEQ ID NO: 302)] |
| 253 | KKLDTFFKKLSLFTER (also called SCF 27; SCF27) [P27 (KKLDTFFKKLSLFTER, SEQ ID NO: 264)] |
| 523 | RKLDTFFVKLSLFTER [RKLDTFFVKLSLFTER (SEQ ID NO: 279)] |
| 400 | KMLDTFFVKLSLFTER [KMLDTFFVKLSLFTER (SEQ ID NO: 417)] |
| 317 | KVLDTFFVKLSLFTER [KVLDTFFVKLSLFTER (SEQ ID NO: 481)] |
| 374 | KKNDTFFVKLSLFTER [KKNDTFFVKLSLFTER (SEQ ID NO: 292)] |
| 284 | WKLDTFFVKLSLFTER [WKLDTFFVKLSLFTER (SEQ ID NO: 507)] |
| 344 | KKYDTFFVKLSLFTER [KKYDTFFVKLSLFTER (SEQ ID NO: 452)] |
| 425 | KPLDTFFVKLSLFTER [KPLDTFFVKLSLFTER (SEQ ID NO: 405)] |
| 344 | SKLDTFFVKLSLFTER [SKLDTFFVKLSLFTER (SEQ ID NO: 453)] |
| 473 | KKQDTFFVKLSLFTER [KKQDTFFVKLSLFTER (SEQ ID NO: 293)] |
| 449 | LKLDTFFVKLSLFTER [LKLDTFFVKLSLFTER (SEQ ID NO: 274)] |
| 315 | YKLDTFFVKLSLFTER [YKLDTFFVKLSLFTER (SEQ ID NO: 483)] |

| RAMPO Score [rampo units] | Binder |
| --- | --- |
| 331 | KTLDTFFVKLSLFTER [KTLDTFFVKLSLFTER (SEQ ID NO: 468)] |
| 417 | KRLDTFFVKLSLFTER [KRLDTFFVKLSLFTER (SEQ ID NO: 407)] |
| 361 | KKPDTFFVKLSLFTER [KKPDTFFVKLSLFTER (SEQ ID NO: 436)] |
| 455 | QKLDTFFVKLSLFTER [QKLDTFFVKLSLFTER (SEQ ID NO: 278)] |
| 451 | KKTDTFFVKLSLFTER [KKTDTFFVKLSLFTER (SEQ ID NO: 296)] |
| 445 | NKLDTFFVKLSLFTER [NKLDTFFVKLSLFTER (SEQ ID NO: 276)] |
| 343 | KLLDTFFVKLSLFTER [KLLDTFFVKLSLFTER (SEQ ID NO: 454)] |
| 370 | KKRDTFFVKLSLFTER [KKRDTFFVKLSLFTER (SEQ ID NO: 294)] |
| 304 | KWLDTFFVKLSLFTER [KWLDTFFVKLSLFTER (SEQ ID NO: 490)] |
| 387 | PKLDTFFVKLSLFTER [PKLDTFFVKLSLFTER (SEQ ID NO: 277)] |
| 460 | KKMDTFFVKLSLFTER [KKMDTFFVKLSLFTER (SEQ ID NO: 291)] |
| 457 | MKLDTFFVKLSLFTER [MKLDTFFVKLSLFTER (SEQ ID NO: 275)] |
| 405 | KKLTTFFVKLSLFTER [KKLTTFFVKLSLFTER (SEQ ID NO: 413)] |
| 350 | KQLDTFFVKLSLFTER [KQLDTFFVKLSLFTER (SEQ ID NO: 440)] |
| 442 | VKLDTFFVKLSLFTER [VKLDTFFVKLSLFTER (SEQ ID NO: 281)] |
| 341 | KKWDTFFVKLSLFTER [KKWDTFFVKLSLFTER (SEQ ID NO: 458)] |
| 377 | KKVDTFFVKLSLFTER [KKVDTFFVKLSLFTER (SEQ ID NO: 297)] |
| 432 | KNLDTFFVKLSLFTER [KNLDTFFVKLSLFTER (SEQ ID NO: 402)] |
| 301 | KYLDTFFVKLSLFTER [KYLDTFFVKLSLFTER (SEQ ID NO: 494)] |
